In article PMC4769027:
One block for each substance: values may come before it.

Assays:
[1] = target: FcγRIIIa F158 variant ectodomain (as used in SPR) (human) (UniProt P08637); test: SPR
[2] = target: FcγRIIa H131 variant ectodomain (human) (UniProt P12318); test: SPR
[3] = target: FcγRIIb ectodomain (human) (UniProt P31994); test: SPR
[4] = target: GASDALIE Fc (G236A/S239D/A330L/I332E IgG1 Fc), expressed as an Fc fragment (human); test: SPR
[5] = target: SDALIE Fc (S239D/A330L/I332E IgG1 Fc) (human); test: SPR
[6] = target: FcγRIIIa V158 (Homo sapiens) (UniProt P08637); test: SPR; details: cited from earlier work
[7] = target: FcγRIIa H131 (Homo sapiens) (UniProt P12318); test: SPR; details: cited from earlier work
[8] = target: FcγRIIIa F158 (Homo sapiens) (UniProt P08637); test: SPR; details: cited from earlier work
FcγRIIb (Homo sapiens) = FcγRIIb (Homo sapiens) (UniProt P31994); test: SPR; details: cited from earlier work
[9] = target: FcγRIIa R131 (Homo sapiens) (UniProt P12318); test: SPR; details: cited from earlier work
[10] = target: FcγRIIIa V158 ECD (Homo sapiens) (UniProt P08637); test: Competition; details: cited from earlier work
[11] = target: FcγRIIa R131 ECD (Homo sapiens) (UniProt P12318); test: SPR; details: cited from earlier work
[12] = target: FcγRIIa H131 ECD (Homo sapiens) (UniProt P12318); test: SPR; details: cited from earlier work
[13] = target: FcγRIIIa V158 ECD (Homo sapiens) (UniProt P08637); test: SPR; details: cited from earlier work
[14] = target: FcγRIIb ECD (Homo sapiens) (UniProt P31994); test: SPR; details: cited from earlier work
[15] = target: FcγRIIIa F158 ECD (Homo sapiens) (UniProt P08637); test: SPR; details: cited from earlier work

Kd [1]: 201 nM | Kd [2]: 1490 nM | Kd [3]: 2.19 µM
Substance: SDALIE Fc (S239D/A330L/I332E IgG1 Fc) (domain or fragment)

Kd [1]: 213 nM | Kd [2]: 1580 nM | Kd [3]: 3.88 µM
Substance: GASDALIE Fc (G236A/S239D/A330L/I332E IgG1 Fc), expressed as an Fc fragment (domain or fragment)

Kd [1]: 4450 nM
Substance: wild-type IgG1 Fc (from UniProt P01857 108-328) (domain or fragment)

fold improved affinity compared with wtFc [4]: 6 fold
Substance: FcγRIIb ectodomain (from UniProt P31994 43-217) (receptor)

fold improved affinity compared with wtFc [5]: 318 fold | fold improved affinity compared with wtFc [4]: 431 fold
Substance: FcγRIIIa F158 variant ectodomain (as used in SPR) (from UniProt P08637 17-218) (receptor)

fold improved affinity compared with wtFc [5]: 2 fold | fold improved affinity compared with wtFc [4]: 17 fold | fold tighter binding than SDALIE Fc [4]: 7 fold
Substance: FcγRIIa H131 variant ectodomain (from UniProt P12318 34-211) (receptor)

Substance: IgG1 Fc Fc (from UniProt P01857)
Kd [6]: 432 nM | Kd [7]: 1380 nM | Kd [8]: 2950 nM | Kd (FcγRIIb (Homo sapiens)): 2520 nM | Kd [9]: 1550 nM

Substance: wtFc (IgG1) Fc (from UniProt P01857)
Kd [10]: 252 nM | Kd [11]: 1550 nM | Kd [12]: 1380 nM | Kd [13]: 432 nM | Kd [14]: 2520 nM | Kd [15]: 2950 nM
